The series “SEC-MALS” concerns the molecule itself. Put plainly: SEC-MALS. (SEC sorts molecules by how far they enter the pores of the column.)
The series “AUC” deals with the molecule itself. Put plainly: AUC.
The series “SEC” concerns the molecule itself. Put plainly: SEC.

As a reminder, the stoichiometry N is a count of units in the complex or per binding partner. For orientation: Kd means the concentration at which binding is half-saturated. Higher therefore signals a looser complex.

B1: Pcdh15 EC1-3 (wild type) (domain or fragment)
chain: not shown
For the protein B1, the “stoichiometry N” value in the series “SEC-MALS” came out at 2. In addition, binding in the series “AUC” was characterised by a dissociation constant (Kd) of 1.2 µM.

B2: Pcdh15 EC1-3 Leu138Phe (domain or fragment)
chain: not shown
In turn, B2 had a Kd in the series “AUC” of 15.3 µM.

B3: Pcdh15 EC1-3 Asp255Lys/Lys345Asp (domain or fragment)
chain: not shown
For the protein B3, in “SEC”, the “stoichiometry N” value was determined as 2.

(Values after paper PMC6168201 (Neuron, 2018).)
